Assay results: paper PMC9581112

Target: Pyruvate kinase M2 (PKM2) (human (endogenous in MDA-MB-231 and MCF-7)) (UniProt P14618)
Assay: native gel or EMSA

Sequence of Pyruvate kinase M2 (PKM2), P14618 1-531 (enzyme; other documents disagree on this pair) (P14618 whole entry): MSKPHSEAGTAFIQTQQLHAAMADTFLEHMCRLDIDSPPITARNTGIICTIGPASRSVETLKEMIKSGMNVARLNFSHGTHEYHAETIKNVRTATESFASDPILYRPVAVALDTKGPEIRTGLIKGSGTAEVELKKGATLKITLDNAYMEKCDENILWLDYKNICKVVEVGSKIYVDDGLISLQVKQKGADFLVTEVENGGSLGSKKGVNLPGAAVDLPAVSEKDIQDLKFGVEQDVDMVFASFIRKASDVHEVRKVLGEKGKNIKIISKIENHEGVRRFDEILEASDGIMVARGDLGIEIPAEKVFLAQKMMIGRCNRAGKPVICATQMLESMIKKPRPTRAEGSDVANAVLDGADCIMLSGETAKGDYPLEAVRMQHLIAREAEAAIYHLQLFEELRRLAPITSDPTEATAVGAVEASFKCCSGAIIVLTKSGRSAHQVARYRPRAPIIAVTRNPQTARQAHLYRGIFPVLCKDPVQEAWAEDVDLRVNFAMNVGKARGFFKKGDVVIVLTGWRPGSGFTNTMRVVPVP

- stoichiometry N: 2
Substance: Pyruvate kinase M2 (PKM2), P14618 1-531 (enzyme; other documents disagree on this pair)
